In patent EP4707292A2 (The University of North Carolina at Chapel Hill, dated 2026):

Legend:
[1] = target: T1, Adeno-associated virus 8 (AAV8) virion (adeno-associated virus 8); assay: co-IP/LC-MS/MS, AAV8 + human serum vs PBS control
T1 construct: Intact virion with packaged vector genome; capsid of 60 subunits (VP1, VP2, VP3, overlapping products of one cap gene); also called AAV8/luc; AAV8 capsid

[2] = target: T2, Adeno-associated virus 9 (AAV9) virion (adeno-associated virus 9); assay: co-IP with ADK9/LC-MS/MS, AAV9 + human serum vs control
T2 construct: Intact virion; capsid of VP1, VP2, VP3; also called AAV9/luc; AAV9 capsid

[3] = target: T2, Adeno-associated virus 9 (AAV9) virion; assay: as above; remark: listed apart in the source

| Binder | fold change [1] | fold change [2] | Fold increase [3] |
| --- | --- | --- | --- |
| Fibrinogen beta chain (other, also called FGB) GHRPLDKKREEAPSLRPAPPPISGGGYRARPAKAAATQKKVERKAPDAGGCLHADPDLGVLCPTGCQLQEALLQQERPIRNSVDELNNNVEAVSQTSSSSFQYMYLLKDLWQKRQKQVKDNENVVNEYSSELEKHQLYIDETVNSNIPTNLRVLRSILENLRSKIQKLESDVSAQMEYCRTPCTVSCNIPVVSGKECEEIIRKGGETSEMYLIQPDSSVKPYRVYCDMNTENGGWTVIQNRQDGSVDFGRKWDPYKQGFGNVATNTDGKNYCGLPGEYWLGNDKISQLTRMGPTELLIEMEDWKGDKVKAHYGGFTVQNEANKYQISVNKYRGTAGNALMDGASQLMGENRTMTIHNGMFFSTYDRDNDGWLTSDPRKQCSKEDGGGWWYNRCHAANPNGRYYWGGQYTWDMAKHGTDDGVVWMNWKGSWYSMRKMSMKIRPFFPQQ | 1.43 fold | 1.43 fold | 4.97 fold |
| Fibrinogen alpha chain (other, from human serum, identified by MS; also called FGA) GPRVVERHQSACKDSDWPFCSDEDWNYKCPSGCRMKGLIDEVNQDFTNRINKLKNSLFEYQKNNKDSHSLTTNIMEILRGDFSSANNRDNTYNRVSEDLRSRIEVLKRKVIEKVQHIQLLQKNVRAQLVDMKRLEVDIDIKIRSCRGSCSRALAREVDLKDYEDQQKQLEQVIAKDLLPSRDRQHLPLIKMKPVPDLVPGNFKSQLQKVPPEWKALTDMPQMRMELERPGGNEITRGGSTSYGTGSETESPRNPSSAGSWNSGSSGPGSTGNRNPGSSGTGGTATWKPGSSGPGSTGSWNSGSSGTGSTGNQNPGSPRPGSTGTWNPGSSERGSAGHWTSESSVSGSTGQWHSESGSFRPDSPGSGNARPNNPDWGTFEEVSGNVSPGTRREYHTEKLVTSKGDKELRTGKEKVTSGSTTTTRRSCSKTVTKTVIGPDGHKEVTKEVVTSEDGSDCPEAMDLGTLSGIGTLDGFRHRHPDEAAFFDTASTGKTFPGFFSPMLGEFVSETESRGSESGIFTNTKESSSHHPGIAEFPSRGKSSSYSKQFTSSTSYNRGDSTFESKSYKMADEAGSEADHEGTHSTKRGHAKSRPVRDCDDVLQTHPSGTQSGIFNIKLPGSSKIFSVYCDQETSLGGWLLIQQRMDGSLNFNRTWQDYKRGFGSLNDEGEGEFWLGNDYLHLLTQRGSVLRVELEDWAGNEAYAEYHFRVGSEAEGYALQVSSYEGTAGDALIEGSVEEGAEYTSHNNMQFSTFDRDADQWEENCAEVYGGGWWYNNCQAANLNGIYYPGGSYDPRNNSPYEIENGVVWVSFRGADYSLRAVRMKIRPLVTQ | 1.75 fold | 1.75 fold | 4.95 fold |
| Fibrinogen gamma chain (other, also called FGG) YVATRDNCCILDERFGSYCPTTCGIADFLSTYQTKVDKDLQSLEDILHQVENKTSEVKQLIKAIQLTYNPDESSKPNMIDAATLKSRKMLEEIMKYEASILTHDSSIRYLQEIYNSNNQKIVNLKEKVAQLEAQCQEPCKDTVQIHDITGKDCQDIANKGAKQSGLYFIKPLKANQQFLVYCEIDGSGNGWTVFQKRLDGSVDFKKNWIQYKEGFGHLSPTGTTEFWLGNEKIHLISTQSAIPYALRVELEDWNGRTSTADYAMFKVGPEADKYRLTYAYFAGGDAGDAFDGFDFGDDPSDKFFTSHNGMQFSTWDNDNDKFEGNCAEQDGSGWWMNKCHAGHLNGVYYQGGTYSKASTPNGYDNGIIWATWKTRWYSMKKTTMKIIPFNRLTIGEGQQHHLGGAKQVRPEHPAETEYDSLYPEDDL | 1.6 fold | 1.6 fold | 4.85 fold |
